Among the data in patent US20150037339A1 are % bound RU w/no inhibitor, binding response (resonance units) for 200 nM ligand and binding response values, retold here.

Experiment [1] concerns the target Activin A (homodimer of two inhibin βA subunits; R&D Systems, #338-AC) (human) (UniProt P08476). The experiment in a line: SPR blocking: 5 nM Activin A + 3.75 nM binder over hActRIIB-hFc (Control 4) surface.
For experiment [2] the target is unchanged. Put plainly: SPR blocking: 5 nM Activin A + 1.88 nM binder over hActRIIB-hFc (Control 4) surface.
For experiment [3] the target is unchanged. The experiment in a line: SPR blocking: 5 nM Activin A + 15 nM binder over Follistatin-288 surface.
For experiment [4] the target is unchanged. Put plainly: SPR blocking: 5 nM Activin A + 30 nM binder over hActRIIB-hFc (Control 4) surface.
Experiment [5] has the same target. The experiment in a line: SPR blocking: 5 nM Activin A + 3.75 nM binder over Follistatin-288 surface.
For experiment [6] the target is unchanged. Put plainly: SPR blocking: 5 nM Activin A + 0.94 nM binder over hActRIIB-hFc (Control 4) surface.
The target is the same in experiment [7]. The experiment in a line: SPR blocking: 5 nM Activin A + 0.00 nM binder over hActRIIA-hFc surface.
For experiment [8] the target is unchanged. The experiment in a line: SPR blocking: 5 nM Activin A + 0.94 nM binder over Follistatin-288 surface.
The target is the same in experiment [9]. Put plainly: SPR blocking: 5 nM Activin A + 1.88 nM binder over hActRIIA-hFc surface.
The target is the same in experiment [10]. Put plainly: SPR blocking: 5 nM Activin A + 0 nM binder over Follistatin-288 surface.
Experiment [11] has the same target. The experiment in a line: SPR blocking: 5 nM Activin A + 7.50 nM binder over hActRIIA-hFc surface.
Experiment [12] has the same target. The experiment in a line: SPR blocking: 5 nM Activin A + 1.88 nM binder over Follistatin-288 surface.
Experiment [13] has the same target. The experiment in a line: SPR blocking: 5 nM Activin A + 15 nM binder over hActRIIA-hFc surface.
Experiment [14] has the same target. Put plainly: SPR blocking: 5 nM Activin A + 30 nM binder over hActRIIA-hFc surface.
Experiment [15] has the same target. Put plainly: SPR blocking: 5 nM Activin A + 60 nM binder over hActRIIB-hFc (Control 4) surface.
Experiment [16] has the same target. The experiment in a line: SPR blocking: 5 nM Activin A + 3.75 nM binder over hActRIIA-hFc surface.
Experiment [17] has the same target. The experiment in a line: SPR blocking: 5 nM Activin A + 0.00 nM binder over hActRIIB-hFc (Control 4) surface.
Experiment [18] shares this target. Put plainly: SPR blocking: 5 nM Activin A + 15 nM binder over hActRIIB-hFc (Control 4) surface.
Experiment [19] shares this target. The experiment in a line: SPR blocking: 5 nM Activin A + 60 nM binder over hActRIIA-hFc surface.
For experiment [20] the target is unchanged. Put plainly: SPR blocking: 5 nM Activin A + 7.50 nM binder over hActRIIB-hFc (Control 4) surface.
The target is the same in experiment [21]. Put plainly: SPR blocking: 5 nM Activin A + 60 nM binder over Follistatin-288 surface.
Experiment [22] has the same target. The experiment in a line: SPR blocking: 5 nM Activin A + 7.5 nM binder over Follistatin-288 surface.
Experiment [23] has the same target. Put plainly: SPR blocking: 5 nM Activin A + 30 nM binder over Follistatin-288 surface.
For experiment [24] the target is unchanged. The experiment in a line: SPR blocking: 5 nM Activin A + 0.94 nM binder over hActRIIA-hFc surface.
Experiment [25] has as its target Activin AC (human) (UniProt P55103). The experiment in a line: SPR (Biacore 4000), captured on anti-human Fc, 200 nM ligand injected, 37 C. In general terms: In SPR one partner is held on a chip, and binding of the other changes the refractive index at the surface.
Experiment [26] concerns the target hBMP4 (human) (UniProt P12644). The description is as above.
Experiment [27] concerns the target hBMP6 (human) (UniProt P22004). The experiment is described as above.
In experiment [28] the target is hBMP10 (human) (UniProt O95393). Described as above.
For experiment [29], the target named is GDF11 (human) (UniProt O95390). The experiment is described as above.
Experiment [30] has as its target Activin A (human) (UniProt P08476). Described as above.
Experiment [31] concerns the target Activin B (human) (UniProt P09529). Described as above.
The target in experiment [32] is hBMP9 (human) (UniProt Q9UK05). Described as above.
The target in experiment [33] is GDF8 (human) (UniProt O14793). Described as above.
For experiment [34], the target named is Activin AB (human) (UniProt P08476). The experiment is described as above.
Experiment [35] concerns the target hBMP7 (human) (UniProt P18075). The experiment is described as above.
The target in experiment [36] is hBMP2 (human) (UniProt P12643). The experiment is described as above.
The target of experiment [37] is Activin A (human) (UniProt P08476). The experiment in a line: Octet cross-competition; binder on sensor tip; 50 nM hActivin A mixed with 1 uM Isotype control 12 (-) (col 12); light grey box (self). For orientation: Biolayer interferometry detects binding as a change in optical thickness at a sensor tip.
For experiment [38] the target is unchanged. The experiment in a line: Octet cross-competition; binder on sensor tip; 50 nM hActivin A pre-bound with 1 uM H4H10429P (col 6); dark grey box.
Experiment [39] shares this target. The experiment in a line: Octet cross-competition; binder on sensor tip; 50 nM hActivin A pre-bound with 1 uM H4H10446P2 (col 1); dark grey box.
For experiment [40] the target is unchanged. The experiment in a line: Octet cross-competition; binder on sensor tip; 50 nM hActivin A pre-bound with 1 uM H4H10423P (col 4); dark grey box.
Experiment [41] has the same target. Put plainly: Octet cross-competition; binder on sensor tip; 50 nM hActivin A pre-bound with 1 uM H4H10432P2 (col 7); dark grey box.
Experiment [42] has the same target. Put plainly: Octet cross-competition; binder on sensor tip; 50 nM hActivin A mixed with 1 uM Isotype control 13 (-) (col 13); light grey box (self).
Experiment [43] shares this target. Put plainly: Octet cross-competition; binder on sensor tip; 50 nM hActivin A pre-bound with 1 uM Control 1 (col 10); dark grey box.
Experiment [44] shares this target. The experiment in a line: Octet cross-competition; binder on sensor tip; 50 nM hActivin A pre-bound with 1 uM Control 3 (col 11); dark grey box.

Sequence of Activin A (human) (P08476 311-426 limits assumed): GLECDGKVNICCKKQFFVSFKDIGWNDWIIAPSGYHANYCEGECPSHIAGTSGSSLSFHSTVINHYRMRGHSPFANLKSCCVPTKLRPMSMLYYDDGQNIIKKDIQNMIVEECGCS
Sequence of Activin A (homodimer of two inhibin βA subunits; R&D Systems, #338-AC) (human) (P08476 311-426 limits assumed): as above
Sequence of hBMP7 (human) (P18075 293-431 limits assumed): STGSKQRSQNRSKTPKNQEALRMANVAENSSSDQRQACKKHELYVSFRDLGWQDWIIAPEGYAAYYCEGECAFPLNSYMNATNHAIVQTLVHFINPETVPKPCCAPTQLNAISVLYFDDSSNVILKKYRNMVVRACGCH
Sequence of Activin AC (human) (chain, as listed by the source, chain 1 of 2): as the sequence (P08476 311-426 limits assumed) above
Sequence of Activin AC (human) (P55103 237-352, chain 2 of 2): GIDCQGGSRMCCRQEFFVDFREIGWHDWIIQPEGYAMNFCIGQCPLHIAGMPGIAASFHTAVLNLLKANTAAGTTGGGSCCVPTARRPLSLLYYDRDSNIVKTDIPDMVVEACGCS
Sequence of Activin AB (human) (P08476 311-426 limits assumed, chain 1 of 2): as the sequence (P08476 311-426 limits assumed) above
Sequence of Activin AB (human) (chain, as listed by the source limits assumed, chain 2 of 2): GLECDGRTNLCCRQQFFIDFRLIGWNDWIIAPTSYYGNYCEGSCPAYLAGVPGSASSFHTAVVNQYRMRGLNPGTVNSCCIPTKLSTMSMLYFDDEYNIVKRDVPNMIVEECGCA
Sequence of hBMP2 (human) (P12643 283-396 limits assumed): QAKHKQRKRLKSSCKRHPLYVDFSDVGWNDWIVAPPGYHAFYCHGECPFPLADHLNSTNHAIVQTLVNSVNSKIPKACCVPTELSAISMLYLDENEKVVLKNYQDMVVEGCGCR
Sequence of GDF11 (human) (O95390 299-407 limits assumed): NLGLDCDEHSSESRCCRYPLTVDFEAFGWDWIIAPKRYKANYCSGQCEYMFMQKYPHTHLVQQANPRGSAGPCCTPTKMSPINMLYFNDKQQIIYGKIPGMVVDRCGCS
Sequence of hBMP9 (human) (Q9UK05 320-429 limits assumed): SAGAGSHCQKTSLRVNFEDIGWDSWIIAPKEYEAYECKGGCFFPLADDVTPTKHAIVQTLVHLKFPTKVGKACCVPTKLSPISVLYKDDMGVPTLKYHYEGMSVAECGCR
Sequence of hBMP6 (human) (P22004 382-513 limits assumed): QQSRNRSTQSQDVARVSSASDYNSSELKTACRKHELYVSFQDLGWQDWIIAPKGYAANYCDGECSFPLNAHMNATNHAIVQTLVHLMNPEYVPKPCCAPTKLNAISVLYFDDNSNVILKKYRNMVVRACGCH
Sequence of hBMP10 (human) (O95393 317-424 limits assumed): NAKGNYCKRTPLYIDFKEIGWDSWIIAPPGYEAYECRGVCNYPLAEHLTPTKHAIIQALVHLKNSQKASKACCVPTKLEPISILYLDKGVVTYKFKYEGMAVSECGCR
Sequence of Activin B (human) (P09529 293-407 G326S limits assumed): as the sequence (chain, as listed by the source limits assumed, chain 2 of 2) above
Sequence of hBMP4 (human) (P12644 293-408 limits assumed): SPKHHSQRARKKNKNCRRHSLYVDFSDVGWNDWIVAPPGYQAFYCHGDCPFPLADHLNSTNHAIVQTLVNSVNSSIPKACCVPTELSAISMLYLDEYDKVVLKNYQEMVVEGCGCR

Consider “Control 3 (murine anti-Activin A monoclonal antibody from R&D Systems, catalog number MAB3381)”, for which the % bound RU w/no inhibitor worked out at 120% in [1]; 133% in experiment [2]; 5% in experiment [3]; 1% in [4]; 145% in experiment [5]; 135% in experiment [6]. For the same substance, the % bound RU w/no inhibitor in experiment [7] was 100%; in experiment [8], 172%; in experiment [9] it was 190%; in experiment [10], 100%; in experiment [11], 32%; in [12] it was 170%. For the same substance, the % bound RU w/no inhibitor in [13] was found to be 1%; in experiment [14], 1%; in experiment [15], 2%; in experiment [16], 139%; in [17] it was 100%; in [18] it was 2%. The % bound RU w/no inhibitor was 0% in [19]; 33% in experiment [20]; 9% in experiment [21]; 33% in experiment [22]; 7% in experiment [23]; 207% in experiment [24].
In the case of Isotype Control mAb (antibody), the binding response (resonance units) for 200 nM ligand in experiment [25] was -0.1 RU; in experiment [26] it was 0.4 RU; in experiment [27], 5.1 RU; in experiment [28], 0.3 RU; in experiment [29] it was 3 RU; in experiment [30], -0.1 RU. Also, the binding response (resonance units) for 200 nM ligand was 1.9 RU in experiment [31]; -1 RU in experiment [32]; 0.5 RU in experiment [33]; -0.1 RU in experiment [34]; 4.3 RU in experiment [35]; -1 RU in experiment [36].
For the substance isotype control antibodies (antibody), the binding response in experiment [37] came to 0.15; in [38] it was 0.22; in experiment [39], 0.22; in experiment [40] it was 0.18; in experiment [41] it was 0.14; in experiment [42], 0.24. Moreover, the values for the binding response in experiment [43] and in experiment [44] were 0.26 and 0.2, respectively.
With isotype control antibody (Example 8), the % bound RU w/no inhibitor in experiment [1] was 104%; in experiment [2] it was 105%; in [3], 102%; in experiment [4], 111%; in experiment [5], 97%; in [6], 105%. Besides, the % bound RU w/no inhibitor stood at 100% in [7]; 100% in [8]; 112% in [9]; 100% in experiment [10]; 115% in experiment [11]; 102% in experiment [12]. Further, the % bound RU w/no inhibitor in [13] is 116%; in experiment [14], 118%; in experiment [15], 115%; in experiment [16], 110%; in [17], 100%; in experiment [18], 110%. Further, the % bound RU w/no inhibitor amounted to 119% in [19]; 107% in experiment [20]; 103% in [21]; 102% in [22]; 104% in experiment [23]; 109% in experiment [24].
